Square brackets hold non-standard residues; d marks the D form. Ends that are not written are not given here. Tyr(3-NO2) = N[C@@H](Cc1ccc(O)c([N+](=O)[O-])c1)C(=O)O; Nle = CCCC[C@H](N)C(=O)O; 2Abz = Nc1ccccc1C(=O)O
Tests used:
Assay type in all cases: biochemical
MMP-7 = biological target: T1, MMP-7 (Homo sapiens, UniProt P09237); test: FRET peptide cleavage efficiency with MMP-7 (standard pH 7.5; also pH 6.5); details: for % cleavage MMP-7 t = 15 min: t = 15 min (Table 9); for % cleavage MMP-7 t = 60 min: t = 60 min (Table 9); for % cleavage MMP-7 t = 120 min: t = 120 min (Table 9)
T1 construct: purchased SIGMA CC1059
T1 sequence (P09237 95-267): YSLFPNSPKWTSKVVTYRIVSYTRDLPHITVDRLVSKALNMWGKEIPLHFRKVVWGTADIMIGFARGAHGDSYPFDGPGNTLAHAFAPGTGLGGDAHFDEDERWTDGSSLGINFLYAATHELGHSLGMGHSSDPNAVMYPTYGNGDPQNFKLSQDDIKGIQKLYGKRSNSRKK

MMP-9 = biological target: T2, MMP-9 (Homo sapiens, UniProt P14780); test: FRET peptide cleavage efficiency with MMP-9 (standard pH 7.5; also pH 6.5); details: for % cleavage MMP-9 t = 15 min: t = 15 min (Table 9); for % cleavage MMP-9 t = 60 min: t = 60 min (Table 9); for % cleavage MMP-9 t = 120 min: t = 120 min (Table 9)
T2 construct: purchased SIGMA PF024
T2 sequence (P14780 94-707): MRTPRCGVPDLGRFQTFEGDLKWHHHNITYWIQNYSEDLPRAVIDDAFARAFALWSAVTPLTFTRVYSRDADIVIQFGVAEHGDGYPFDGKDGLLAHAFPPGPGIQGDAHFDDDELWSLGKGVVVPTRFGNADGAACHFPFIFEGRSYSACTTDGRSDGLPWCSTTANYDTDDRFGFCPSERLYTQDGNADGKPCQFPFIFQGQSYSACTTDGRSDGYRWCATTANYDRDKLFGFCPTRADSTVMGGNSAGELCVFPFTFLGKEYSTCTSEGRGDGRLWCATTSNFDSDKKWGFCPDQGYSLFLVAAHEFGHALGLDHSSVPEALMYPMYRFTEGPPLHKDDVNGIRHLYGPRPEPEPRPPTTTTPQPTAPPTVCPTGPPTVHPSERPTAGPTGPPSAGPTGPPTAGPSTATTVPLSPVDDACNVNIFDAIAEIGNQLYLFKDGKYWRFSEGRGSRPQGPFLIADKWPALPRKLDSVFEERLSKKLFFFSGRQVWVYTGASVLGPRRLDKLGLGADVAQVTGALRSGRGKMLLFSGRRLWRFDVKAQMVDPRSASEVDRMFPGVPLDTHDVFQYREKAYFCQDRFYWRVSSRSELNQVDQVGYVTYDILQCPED

MMP-2 = biological target: T3, MMP-2 (Homo sapiens, UniProt P08253); test: FRET peptide cleavage efficiency with MMP-2
T3 construct: purchased SIGMA PF023
T3 sequence (P08253 110-660): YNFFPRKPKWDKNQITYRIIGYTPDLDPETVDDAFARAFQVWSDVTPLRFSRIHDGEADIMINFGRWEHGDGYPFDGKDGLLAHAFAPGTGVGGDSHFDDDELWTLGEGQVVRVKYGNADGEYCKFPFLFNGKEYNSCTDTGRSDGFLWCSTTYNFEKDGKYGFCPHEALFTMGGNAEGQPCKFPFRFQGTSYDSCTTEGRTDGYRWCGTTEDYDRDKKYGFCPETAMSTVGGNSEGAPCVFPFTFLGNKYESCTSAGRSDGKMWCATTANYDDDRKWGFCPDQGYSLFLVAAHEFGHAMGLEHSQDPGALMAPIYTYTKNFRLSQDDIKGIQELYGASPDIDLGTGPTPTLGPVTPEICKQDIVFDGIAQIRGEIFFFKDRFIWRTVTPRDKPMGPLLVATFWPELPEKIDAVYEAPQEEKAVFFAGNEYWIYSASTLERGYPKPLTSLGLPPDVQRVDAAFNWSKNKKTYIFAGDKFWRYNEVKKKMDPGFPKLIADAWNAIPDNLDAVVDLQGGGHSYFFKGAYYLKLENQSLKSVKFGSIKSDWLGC

uPA = uPA (Homo sapiens, UniProt P00749); test: FRET peptide cleavage efficiency with uPA; details: 200 uM linker, 1 ug/ml protease, 37° C., buffer A pH 8.5
matriptase = biological target: T4, matriptase (Homo sapiens, UniProt Q9Y5Y6); test: FRET peptide cleavage efficiency with matriptase; details: 200 uM linker, 1 ug/ml protease, 37° C., buffer B pH 9.0
T4 construct: purchased R&D Systems 3946-SEB
T4 sequence (Q9Y5Y6 615-855 limits assumed): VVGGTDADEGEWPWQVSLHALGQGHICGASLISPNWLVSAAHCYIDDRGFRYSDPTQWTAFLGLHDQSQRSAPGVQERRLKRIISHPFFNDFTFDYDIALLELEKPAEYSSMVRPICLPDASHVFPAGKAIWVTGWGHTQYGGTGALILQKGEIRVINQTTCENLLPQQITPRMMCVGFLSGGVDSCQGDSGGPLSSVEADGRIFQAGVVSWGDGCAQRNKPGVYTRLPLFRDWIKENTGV

[1] = t = 15 min, 200 uM linker, 1 ug/ml protease, 37° C., buffer C pH 7.5
[2] = t = 60 min, 200 uM linker, 1 ug/ml protease, 37° C., buffer C pH 7.5
[3] = t = 120 min, 200 uM linker, 1 ug/ml protease, 37° C., buffer C pH 7.5

Substance | % cleavage MMP-7 t = 15 min (MMP-7) | % cleavage MMP-7 t = 60 min (MMP-7) | % cleavage MMP-7 t = 120 min (MMP-7) | % cleavage MMP-9 t = 15 min (MMP-9) | % cleavage MMP-9 t = 60 min (MMP-9) | % cleavage MMP-9 t = 120 min (MMP-9) | % cleavage MMP-2 t = 15 min (MMP-2; t = 15 min (Table 9)) | % cleavage MMP-2 t = 15 min (MMP-2; [1]) | % cleavage MMP-2 t = 60 min (MMP-2; t = 60 min (Table 9)) | % cleavage MMP-2 t = 60 min (MMP-2; [2]) | % cleavage MMP-2 t = 120 min (MMP-2; t = 120 min (Table 9)) | % cleavage MMP-2 t = 120 min (MMP-2; [3]) | % cleavage uPA t = 15 min (uPA) | % cleavage uPA t = 60 min (uPA) | % cleavage uPA t = 120 min (uPA) | % cleavage Matriptase t = 15 min (matriptase) | % cleavage Matriptase t = 60 min (matriptase) | % cleavage Matriptase t = 120 min (matriptase)
SGRVANPLGGSG ([2Abz]SGRVANPLGGSG[Tyr(3-NO2)]-NH2) [LNK053] | 0% | 0% | 0% | 1% | 3% | 4% | 2% | 2% | 5% | 5% | 8% | 8% | 1% | 5% | 12% | 3% | 11% | 20%
RGRRPLGYFGKL ([2Abz]RGRRPLGYFGKL[Tyr(3-NO2)]-NH2) [LNK057] | 0% | 0% | 0% | 20% | 100% | 100% | 71% | 71% | 100% | 100% | 100% | 100% | 0% | 0% | 0% | 22% | 78% | 100%
KWGKSAPLGLAG ([2Abz]KWGKSAPLGLAG[Tyr(3-NO2)]-NH2) [LNK026] | – | – | – | – | – | – | – | 69% | – | 98% | – | 98% | 0% | 1% | 3% | 97% | 86% | 86%
SGRVLTLRKAPWGLLE ([2Abz]SGRVLTLRKAPWGLLE[Tyr(3-NO2)]-NH2) [LNK004] | – | – | – | – | – | – | – | 16% | – | 50% | – | 74% | 6% | 16% | 27% | 98% | 98% | 95%
PASNRRLPLGLAG ([2Abz]PASNRRLPLGLAG[Tyr(3-NO2)]-NH2) [LNK018] | – | – | – | – | – | – | – | 40% | – | 83% | – | 87% | 0% | 0% | 0% | 49% | 92% | 97%
SGRVLGPLNLSG ([2Abz]SGRVLGPLNLSG[Tyr(3-NO2)]-NH2) [LNK008] | – | – | – | – | – | – | – | 71% | – | 99% | – | 99% | 1% | 1% | 2% | 20% | 72% | 92%
SSRAVFRKNLGPLGLAG ([2Abz]SSRAVFRKNLGPLGLAG[Tyr(3-NO2)]-NH2) [LNK002] | – | – | – | – | – | – | – | 77% | – | 99% | – | 98% | 5% | 10% | 18% | 89% | 85% | 84%
SGRVLPLGMRA ([2Abz]SGRVLPLGMRA[Tyr(3-NO2)]-NH2) [LNK023] | – | – | – | – | – | – | – | 96% | – | 98% | – | 98% | 2% | 2% | 3% | 38% | 92% | 99%
SGRVLRKAGPAGLVG ([2Abz]SGRVLRKAGPAGLVG[Tyr(3-NO2)]-NH2) [LNK013] | – | – | – | – | – | – | – | 99% | – | 99% | – | 100% | 0% | 2% | 6% | 99% | 94% | 94%
SPLGLAGS ([2Abz]SPLGLAGS[Tyr(3-NO2)]-NH2) [LNK030] | – | – | – | – | – | – | – | 67% | – | 100% | – | 99% | 0% | 0% | 0% | 0% | 0% | 0%
RQRRS-Nle-PLGLAG ([2Abz]RQRRS[Nle]PLGLAG[Tyr(3-NO2)]-NH2) [LNK025] | – | – | – | – | – | – | – | 64% | – | 97% | – | 98% | 0% | 1% | 2% | 97% | 84% | 77%

From patent publication US20240400614A1, “CLEAVABLE PEPTIDES AND METHODS OF USE THEREOF” (Bright Peak Therapeutics AG, priority 2023, published 2024)
